Source: patent publication EP3801029B1 (Morehouse School of Medicine, dated 2024)

Assays:
[1] = biological target: T1, Mortalin (UniProt P38646 47-679); assay: peptide pull-down from Jurkat cell lysate, Western blot
T1 construct: Endogenous protein from Jurkat cells (a human cell line); also called Glucose-regulated protein 75; GRP75

[2] = biological target: T2, E. coli DnaK protein (Escherichia coli, UniProt P0A6Y8 2-638); assay: ANTI-FLAG M2 pull-down from E. coli lysate, Western blot with anti-DnaK antibody
T2 construct: Endogenous protein from E. coli lysate; also called heat shock protein 70; Hsp70

[3] = biological target: T1, Mortalin; assay: peptide pull-down from Jurkat cell lysate, Western blot with anti-mortalin antibody

T1 sequence (P38646 47-679 limits assumed): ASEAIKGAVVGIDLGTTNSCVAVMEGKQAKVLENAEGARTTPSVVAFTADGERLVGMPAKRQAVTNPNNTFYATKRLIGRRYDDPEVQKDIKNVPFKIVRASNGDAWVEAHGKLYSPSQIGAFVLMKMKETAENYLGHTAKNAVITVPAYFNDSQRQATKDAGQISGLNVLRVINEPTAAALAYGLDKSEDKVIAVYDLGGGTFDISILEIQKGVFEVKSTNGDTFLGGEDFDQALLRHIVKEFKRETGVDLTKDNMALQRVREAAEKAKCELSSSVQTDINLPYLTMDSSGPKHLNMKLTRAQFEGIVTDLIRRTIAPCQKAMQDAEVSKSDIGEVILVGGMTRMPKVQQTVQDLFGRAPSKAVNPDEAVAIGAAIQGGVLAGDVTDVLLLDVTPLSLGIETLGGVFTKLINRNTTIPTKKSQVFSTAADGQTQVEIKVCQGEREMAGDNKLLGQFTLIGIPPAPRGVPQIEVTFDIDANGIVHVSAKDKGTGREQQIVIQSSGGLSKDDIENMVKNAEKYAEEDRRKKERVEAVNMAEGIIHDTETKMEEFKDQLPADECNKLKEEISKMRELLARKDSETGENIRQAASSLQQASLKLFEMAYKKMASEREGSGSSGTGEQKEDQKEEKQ
T2 sequence (P0A6Y8 2-638 limits assumed): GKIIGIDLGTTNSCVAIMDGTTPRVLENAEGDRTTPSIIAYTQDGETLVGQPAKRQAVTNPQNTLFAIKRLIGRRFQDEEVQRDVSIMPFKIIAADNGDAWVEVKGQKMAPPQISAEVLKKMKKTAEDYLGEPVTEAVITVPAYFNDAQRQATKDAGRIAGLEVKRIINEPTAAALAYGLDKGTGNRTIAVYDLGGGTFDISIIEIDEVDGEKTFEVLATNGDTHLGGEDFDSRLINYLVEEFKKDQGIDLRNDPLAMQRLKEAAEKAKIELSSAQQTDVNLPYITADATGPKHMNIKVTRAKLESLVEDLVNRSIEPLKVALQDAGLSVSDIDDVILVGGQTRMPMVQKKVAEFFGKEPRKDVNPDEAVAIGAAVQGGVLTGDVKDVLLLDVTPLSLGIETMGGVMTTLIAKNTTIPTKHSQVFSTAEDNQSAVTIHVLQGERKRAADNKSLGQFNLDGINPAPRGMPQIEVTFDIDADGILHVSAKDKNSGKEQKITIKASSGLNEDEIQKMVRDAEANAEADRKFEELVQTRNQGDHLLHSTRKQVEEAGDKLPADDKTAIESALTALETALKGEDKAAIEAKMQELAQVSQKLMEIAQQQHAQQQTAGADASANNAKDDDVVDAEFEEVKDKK

B1: synthetic HIV-1 Nef SMRwt peptide (VGFPVAAVGFPVDYKDDDDK) (peptide)
peptide: VGFPVAAVGFPVDYKDDDDK
notes: also called SMR peptide; antagonist
- binding result [1]: binds

B2: synthetic HIV-1 Nef SMRmut peptide (AGFPVAAAGFPVDYKDDDDK) (peptide)
peptide: AGFPVAAAGFPVDYKDDDDK
notes: also called negative control peptide; mutant SMR peptide
- binding result [2]: no binding (tested: 1 µg peptide with 1 mg E. coli lysate)
- binding result [3]: no binding
